Data on 1 molecule can be found in article PMC8996325.

The data set has as its target T1, Act1 SEFIR (wild type) (UniProt Q8N7N6 390-531).
T1 sequence: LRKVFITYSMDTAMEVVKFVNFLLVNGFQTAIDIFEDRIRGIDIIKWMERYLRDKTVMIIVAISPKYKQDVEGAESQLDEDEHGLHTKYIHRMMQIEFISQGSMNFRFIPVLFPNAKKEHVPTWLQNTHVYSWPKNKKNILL
Description: competition.

B1: Hif1α aptamer (SBE) (structured_RNA)
RNA: UAAUGCUCUUUUUAAUAUGUUCUUUUAAUGCCAGAUCACAGCACAUUCACAGCU
modifications: chemically modified RNA oligo (modification not specified)
In the case of B1, the binding result is on record as “binds”.
